Source: article PMC4718548 (Structure (London, England : 1993), 2015)
Substitutions are numbered along the chain they refer to. Names may count otherwise.

Key:
[1] = target: Mycobacterium tuberculosis ribosome large subunit 50S (Mycobacterium tuberculosis (endogenous in Mtb MC2 7000)) (UniProt A5U0A0); assay: co-sedimentation
[2] = target: Mycobacterium tuberculosis ribosome large subunit 50S (Mycobacterium tuberculosis (endogenous in Mtb MC2 7000)) (UniProt A5U0A0)
[3] = target: Mycobacterium tuberculosis ribosome large subunit 50S (Mycobacterium tuberculosis (endogenous in Mtb MC2 7000)) (UniProt A5U0A0); assay: cryo-EM structure
[4] = target: the molecule itself

Chain of Mycobacterium tuberculosis ribosome large subunit 50S (Mycobacterium tuberculosis (endogenous in Mtb MC2 7000)) (A5U0A0 whole entry, looked up): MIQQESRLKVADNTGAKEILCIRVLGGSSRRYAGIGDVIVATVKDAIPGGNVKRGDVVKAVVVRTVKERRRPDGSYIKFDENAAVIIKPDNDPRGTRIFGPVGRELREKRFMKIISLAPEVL

Molecule: Mycobacterium tuberculosis ribosome small subunit 30S (complex)
- percent of 50S in the 70S form, without RsfS [1]: > 70%

B1: Escherichia coli RsfS, wild type, C-terminal His6 (natural protein)
chain: MQGKALQDFVIDKIDDLKGQDIIALDVQGKSSITDCMIICTGTSSRHVMSIADHVVQESRAAGLLPLGVEGENSADWIVVDLGDVIVHVMQEESRRLYELEKLWS
- inhibition in the Mtb ribosome cell-free translation assay [2]: 80%

B2: Mycobacterium tuberculosis ribosomal silencing factor RsfS, wild type, C-terminal His6 (natural protein)
chain: MTANREAIDMARVAAGAAAAKLADDVVVIDVSGQLVITDCFVIASGSNERQVNAIVDEVEEKMRQAGYRPARREGAREGRWTLLDYRDIVVHIQHQDDRNFYALDRLWGDCPVVPVDLSANSAGAQ
- stoichiometry N [3]: 1

B3: Mycobacterium tuberculosis RsfS E74A, C-terminal His6 (natural protein)
chain: B2 chain with E74A
- stoichiometry N [4]: 2
